Like-named read-outs stand apart in the source and are kept apart here. Ends that are not written are not given here.
Tests used:
[1] = target: T1, Soluble recombinant human urokinase receptor (suPAR) (human, UniProt Q03405 23-299, biotinylated in the plate assays (sites not given)); test: uPAR receptor binding assay
[2] = target: T1, Soluble recombinant human urokinase …; test: uPAR receptor binding assay; remark: listed apart in the source

T1 sequence (Q03405 23-299): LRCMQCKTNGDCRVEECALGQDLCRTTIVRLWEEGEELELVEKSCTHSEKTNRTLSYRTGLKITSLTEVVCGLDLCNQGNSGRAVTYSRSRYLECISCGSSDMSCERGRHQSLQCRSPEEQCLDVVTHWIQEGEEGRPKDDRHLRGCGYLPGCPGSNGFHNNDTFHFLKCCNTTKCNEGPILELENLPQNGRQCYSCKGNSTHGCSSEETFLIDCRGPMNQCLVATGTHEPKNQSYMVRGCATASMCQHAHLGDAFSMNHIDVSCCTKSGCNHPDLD

Row | Binder | IC50 [1] [nM] | IC50 [2] [nM]
1 | CLNGGTAVSNKYFSNIHWCN [uPA13-32 peptide (amino acids 13-32 of human urokinase with Cys19 converted to Ala)] | 250 | 250
2 | AESTYHHLSLGYMYTLN-NH2 [Peptide 25 (synthetic peptide of clone 25)] | > 10000 | > 10000
3 | AEPMPHSLNFSQYLWYT-NH2 [Clone 20 peptide] | 10 | 10

From patent US20040265797A1 (published 2004)
